Here are results for one molecule from article PMC7275041, “m5C modification of mRNA serves a DNA damage code to promote homologous recombination”.

In the data set the target is T1, RAD52 (hRAD52) (human, UniProt P43351 1-418).
T1 sequence: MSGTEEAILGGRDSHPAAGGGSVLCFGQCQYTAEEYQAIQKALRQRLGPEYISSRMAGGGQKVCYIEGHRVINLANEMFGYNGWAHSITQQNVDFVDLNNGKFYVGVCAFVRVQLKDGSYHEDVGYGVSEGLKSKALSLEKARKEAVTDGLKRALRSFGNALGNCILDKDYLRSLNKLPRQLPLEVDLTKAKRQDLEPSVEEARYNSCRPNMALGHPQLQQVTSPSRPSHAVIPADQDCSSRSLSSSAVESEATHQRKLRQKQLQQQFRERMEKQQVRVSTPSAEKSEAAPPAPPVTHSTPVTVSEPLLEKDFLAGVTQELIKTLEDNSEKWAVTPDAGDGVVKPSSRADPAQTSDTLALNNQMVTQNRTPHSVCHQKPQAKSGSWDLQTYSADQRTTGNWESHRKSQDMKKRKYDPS
The data set is described as follows: EMSA; higher efficiency than unmodified N1; 1 mM Mg2+; source data at top RAD52 level (360, unit not shown): 97.3 and 99.2; EMSA: 25 mM Tris-HCl pH 7.5, 1 mM MgCl2, 1 mM DTT, 50 ug/mL BSA, 50 or 300 mM NaCl and/or 0.5% NP-40, 15 min 37 C, 6% PAGE-TBE at 4 C; pull-down: Pierce magnetic RNA-protein pull-down kit. The conditions noted are these: protein: recombinant; tags: C-terminal 6xHis (pET28b); label: 5' maleimide-IR800 on oligo 1 (DNA); blunt. A general note: Mobility shift assays separate free from complexed probe on a gel.

B1: 50-bp m5C DNA:RNA hybrid (oligo 1/oligo 3) (DNA:RNA)
DNA: ATCATCACCATAACGTCGATGTATCAACTTCGATTAGTCACACCAATTAA
RNA: UUAAUUGGUGUGACUAAUCGAAGUUGAUACAUCGACGUUAUGGUGAUGAU
modifications: m5C at every C of the RNA strand (positions 14, 19, 30, 33, 36; five m5C)
As for B1, the binding result is “binds”.
